Drawing on article PMC10786891, “Massively parallel profiling of RNA-targeting CRISPR-Cas13d”, this text covers Kd for 23 molecules.

To fix the notation:
B1: target 2 MT 5'PFS CGA 3'PFS AUU (mixed)
RNA 1: CACCCGUGCAAAAUUGCAGGGGUCUAAAACCUUCUCCAAAUUGUUUCAUCCU
RNA 2: GGGAAUGGAUCCACAUCUACGAAUUCCGAAGGAUGAAACAAUUUGGAGAAGAUUAGAUCGGAAGAGCACACGU
B2: target 2 MT 5'PFS GGU 3'PFS CAC (mixed)
RNA 1: CACCCGUGCAAAAUUGCAGGGGUCUAAAACCUUCUCCAAAUUGUUUCAUCCU
RNA 2: GGGAAUGGAUCCACAUCUACGAAUUCGGUAGGAUGAAACAAUUUGGAGAAGCACAGAUCGGAAGAGCACACGU
B3: target 2 MT 5'PFS GGU 3'PFS CAU (mixed)
RNA 1: CACCCGUGCAAAAUUGCAGGGGUCUAAAACCUUCUCCAAAUUGUUUCAUCCU
RNA 2: GGGAAUGGAUCCACAUCUACGAAUUCGGUAGGAUGAAACAAUUUGGAGAAGCAUAGAUCGGAAGAGCACACGU
B4: target 2 MT 5'PFS AGA 3'PFS UGU (mixed)
RNA 1: CACCCGUGCAAAAUUGCAGGGGUCUAAAACCUUCUCCAAAUUGUUUCAUCCU
RNA 2: GGGAAUGGAUCCACAUCUACGAAUUCAGAAGGAUGAAACAAUUUGGAGAAGUGUAGAUCGGAAGAGCACACGU
B5: target 2 MT 5'PFS CGC 3'PFS AUA (mixed)
RNA 1: CACCCGUGCAAAAUUGCAGGGGUCUAAAACCUUCUCCAAAUUGUUUCAUCCU
RNA 2: GGGAAUGGAUCCACAUCUACGAAUUCCGCAGGAUGAAACAAUUUGGAGAAGAUAAGAUCGGAAGAGCACACGU
B6: target 2 MT 5'PFS CGC 3'PFS AUU (mixed)
RNA 1: CACCCGUGCAAAAUUGCAGGGGUCUAAAACCUUCUCCAAAUUGUUUCAUCCU
RNA 2: GGGAAUGGAUCCACAUCUACGAAUUCCGCAGGAUGAAACAAUUUGGAGAAGAUUAGAUCGGAAGAGCACACGU
B7: target 2 MT 5'PFS GAU 3'PFS UCU (mixed)
RNA 1: CACCCGUGCAAAAUUGCAGGGGUCUAAAACCUUCUCCAAAUUGUUUCAUCCU
RNA 2: GGGAAUGGAUCCACAUCUACGAAUUCGAUAGGAUGAAACAAUUUGGAGAAGUCUAGAUCGGAAGAGCACACGU
B8: target 2 MT 5'PFS AUU 3'PFS AAG (mixed)
RNA 1: CACCCGUGCAAAAUUGCAGGGGUCUAAAACCUUCUCCAAAUUGUUUCAUCCU
RNA 2: GGGAAUGGAUCCACAUCUACGAAUUCAUUAGGAUGAAACAAUUUGGAGAAGAAGAGAUCGGAAGAGCACACGU
B9: target 2 MT 5'PFS AUU 3'PFS AAA (mixed)
RNA 1: CACCCGUGCAAAAUUGCAGGGGUCUAAAACCUUCUCCAAAUUGUUUCAUCCU
RNA 2: GGGAAUGGAUCCACAUCUACGAAUUCAUUAGGAUGAAACAAUUUGGAGAAGAAAAGAUCGGAAGAGCACACGU
B10: target 2 MT 5'PFS ACC 3'PFS UAA (mixed)
RNA 1: CACCCGUGCAAAAUUGCAGGGGUCUAAAACCUUCUCCAAAUUGUUUCAUCCU
RNA 2: GGGAAUGGAUCCACAUCUACGAAUUCACCAGGAUGAAACAAUUUGGAGAAGUAAAGAUCGGAAGAGCACACGU
B11: target 2 MT 5'PFS CGC 3'PFS AUC (mixed)
RNA 1: CACCCGUGCAAAAUUGCAGGGGUCUAAAACCUUCUCCAAAUUGUUUCAUCCU
RNA 2: GGGAAUGGAUCCACAUCUACGAAUUCCGCAGGAUGAAACAAUUUGGAGAAGAUCAGAUCGGAAGAGCACACGU
B12: target 2 MT 5'PFS AUG 3'PFS UUU (mixed)
RNA 1: CACCCGUGCAAAAUUGCAGGGGUCUAAAACCUUCUCCAAAUUGUUUCAUCCU
RNA 2: GGGAAUGGAUCCACAUCUACGAAUUCAUGAGGAUGAAACAAUUUGGAGAAGUUUAGAUCGGAAGAGCACACGU
B13: target 2 MT 5'PFS AUU 3'PFS AAU (mixed)
RNA 1: CACCCGUGCAAAAUUGCAGGGGUCUAAAACCUUCUCCAAAUUGUUUCAUCCU
RNA 2: GGGAAUGGAUCCACAUCUACGAAUUCAUUAGGAUGAAACAAUUUGGAGAAGAAUAGAUCGGAAGAGCACACGU
B14: target 2 MT 5'PFS GGU 3'PFS CAA (mixed)
RNA 1: CACCCGUGCAAAAUUGCAGGGGUCUAAAACCUUCUCCAAAUUGUUUCAUCCU
RNA 2: GGGAAUGGAUCCACAUCUACGAAUUCGGUAGGAUGAAACAAUUUGGAGAAGCAAAGAUCGGAAGAGCACACGU
B15: target 2 MT 5'PFS CUA 3'PFS UCA (mixed)
RNA 1: CACCCGUGCAAAAUUGCAGGGGUCUAAAACCUUCUCCAAAUUGUUUCAUCCU
RNA 2: GGGAAUGGAUCCACAUCUACGAAUUCCUAAGGAUGAAACAAUUUGGAGAAGUCAAGAUCGGAAGAGCACACGU
B16: target 2 MT 5'PFS CUA 3'PFS UCC (mixed)
RNA 1: CACCCGUGCAAAAUUGCAGGGGUCUAAAACCUUCUCCAAAUUGUUUCAUCCU
RNA 2: GGGAAUGGAUCCACAUCUACGAAUUCCUAAGGAUGAAACAAUUUGGAGAAGUCCAGAUCGGAAGAGCACACGU
B17: target 2 MT 5'PFS ACA 3'PFS ACA (mixed)
RNA 1: CACCCGUGCAAAAUUGCAGGGGUCUAAAACCUUCUCCAAAUUGUUUCAUCCU
RNA 2: GGGAAUGGAUCCACAUCUACGAAUUCACAAGGAUGAAACAAUUUGGAGAAGACAAGAUCGGAAGAGCACACGU
B18: target 2 MT 5'PFS AUU 3'PFS UAU (mixed)
RNA 1: CACCCGUGCAAAAUUGCAGGGGUCUAAAACCUUCUCCAAAUUGUUUCAUCCU
RNA 2: GGGAAUGGAUCCACAUCUACGAAUUCAUUAGGAUGAAACAAUUUGGAGAAGUAUAGAUCGGAAGAGCACACGU
B19: target 2 MT 5'PFS ACA 3'PFS ACU (mixed)
RNA 1: CACCCGUGCAAAAUUGCAGGGGUCUAAAACCUUCUCCAAAUUGUUUCAUCCU
RNA 2: GGGAAUGGAUCCACAUCUACGAAUUCACAAGGAUGAAACAAUUUGGAGAAGACUAGAUCGGAAGAGCACACGU
B20: target 2 MT 5'PFS CGC 3'PFS AUG (mixed)
RNA 1: CACCCGUGCAAAAUUGCAGGGGUCUAAAACCUUCUCCAAAUUGUUUCAUCCU
RNA 2: GGGAAUGGAUCCACAUCUACGAAUUCCGCAGGAUGAAACAAUUUGGAGAAGAUGAGAUCGGAAGAGCACACGU
B21: target 1 insA 3' of 7,insG 3' of 3 (mixed)
RNA 1: CACCCGUGCAAAAAUGCAGGGGUCUAAAACUGAGCGGAUAACCUCUCUAUGG
RNA 2: GGGAAUGGAUCCACAUCUACGAAUUCGUACCAUAGAGAGGUUAUCACGCUGCACCGAGAUCGGAAGAGCACACGU
B22: target 1 insA 3' of 8,insA 3' of 8 (mixed)
RNA 1: CACCCGUGCAAAAAUGCAGGGGUCUAAAACUGAGCGGAUAACCUCUCUAUGG
RNA 2: GGGAAUGGAUCCACAUCUACGAAUUCGUACCAUAGAGAGGUUAUAACCGCUCACCGAGAUCGGAAGAGCACACGU
B23: target 1 A1C,C2G (mixed)
RNA 1: CACCCGUGCAAAAAUGCAGGGGUCUAAAACUGAGCGGAUAACCUCUCUAUGG
RNA 2: GGGAAUGGAUCCACAUCUACGAAUUCGUACCAUAGAGAGGUUAUCCGCUGCCCGAGAUCGGAAGAGCACACGU

This series deals with T1, EsCas13d, nuclease-dead (Eubacterium siraeum, UniProt B0MS50, R295A;H300A;R849A;H854A).
T1 sequence: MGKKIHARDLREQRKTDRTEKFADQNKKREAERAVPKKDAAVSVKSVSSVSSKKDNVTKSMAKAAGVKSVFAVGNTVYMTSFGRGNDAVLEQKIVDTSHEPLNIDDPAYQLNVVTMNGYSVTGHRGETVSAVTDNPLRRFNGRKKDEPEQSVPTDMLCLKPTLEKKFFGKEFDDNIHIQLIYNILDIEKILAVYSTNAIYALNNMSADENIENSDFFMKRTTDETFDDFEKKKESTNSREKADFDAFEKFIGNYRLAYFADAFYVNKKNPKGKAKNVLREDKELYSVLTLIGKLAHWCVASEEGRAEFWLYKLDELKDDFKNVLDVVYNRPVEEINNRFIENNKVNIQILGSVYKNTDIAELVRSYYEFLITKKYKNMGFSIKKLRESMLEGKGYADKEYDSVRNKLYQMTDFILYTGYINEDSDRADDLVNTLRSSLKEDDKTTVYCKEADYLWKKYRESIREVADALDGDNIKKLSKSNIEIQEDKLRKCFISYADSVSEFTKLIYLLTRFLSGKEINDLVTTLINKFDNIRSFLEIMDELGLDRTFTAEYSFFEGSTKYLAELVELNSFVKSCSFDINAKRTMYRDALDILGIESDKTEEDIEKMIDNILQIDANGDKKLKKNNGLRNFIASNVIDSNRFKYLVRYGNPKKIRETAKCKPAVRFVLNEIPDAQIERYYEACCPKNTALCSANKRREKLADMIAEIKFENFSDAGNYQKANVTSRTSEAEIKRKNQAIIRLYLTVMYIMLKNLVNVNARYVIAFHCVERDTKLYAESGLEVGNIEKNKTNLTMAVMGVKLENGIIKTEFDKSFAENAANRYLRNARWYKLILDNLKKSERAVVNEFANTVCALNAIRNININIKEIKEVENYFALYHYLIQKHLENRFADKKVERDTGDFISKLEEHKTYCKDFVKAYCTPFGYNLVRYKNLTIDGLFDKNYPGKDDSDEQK
The experiment in a line: crRNA (strand 1, pre-loaded); Mg2+; 40 mM Tris-HCl pH 7.5, 150 mM NaCl, 6 mM MgCl2, 1 mM DTT, 0.1% Tween-20, 0.2 mg/ml BSA; 25 C; 10 min per concentration, then washed. The note with it: tags: His6-TwinStrep-SUMO cleaved; N-terminal SNAP kept (SNAP-Surface 488); label: 3' end held by stalled T7 RNA polymerase.
B1: the Kd (usually a measure of binding affinity in units of concentration) is 10.6 ± 3.3 nM.

In the case of B2, binding was put at a Kd of 14.8 ± 2.2 nM.

For B3, the dissociation constant Kd worked out at 14.9 ± 2.3 nM.

The molecule B4 came in with a Kd of 9.5 ± 1.2 nM.

The molecule B5 returned an equilibrium dissociation constant (Kd) of 4 ± 0.5 nM.

B6 yielded a Kd of 5 ± 0.8 nM.

As for B7, the dissociation constant (Kd) was 56 ± 15 nM.

B8 gave a Kd of 5.6 ± 0.6 nM.

B9 came in with a Kd of 4.7 ± 0.5 nM.

In the case of B10, the Kd is ~12 nM.

B11 showed a Kd of 4.6 ± 0.6 nM.

Take B12: the Kd turned out to be 25 ± 6 nM.

In turn, B13 had a dissociation constant (Kd) of 7.1 ± 1.4 nM.

The molecule B14 returned a Kd of 8.6 ± 1.4 nM.

B15 returned a Kd of 2.17 ± 0.35 nM.

The molecule B16 yielded a Kd of 3.4 ± 0.5 nM.

As to B17, the Kd is 7.2 ± 2.3 nM.

On to B18, for which the Kd worked out at 5.6 ± 0.4 nM.

B19: binding was put at a Kd of 6.3 ± 1.3 nM.

In turn, B20 showed a Kd of 5 ± 0.6 nM.

Take B21: binding was put at a Kd of 4.65 ± 0.13 nM.

For B22, the Kd is 32.2 ± 3.2 nM.

In turn, B23 gave a Kd of 35 ± 4 nM.
